The DeepSol protein solubility set

Experiment: soluble on expression in E. coli; label from the status in PepcDB or PDB records

Row | Sequence | soluble on expression in E. coli
1 | MAVDGLVSEKIKELLKELGKTYKLVVLTADTYGTLEKEFNGLPITVDKIKNEIEKEKAAEKYSPYIGIGNGNNDCLMLEKSELGILIIGEEGASTNALLKSDIVINNIKDAINLLLNEKRIIATL | not soluble
2 | MWRLIYSLLFLIPGAAMAGAQVYEPLSASTRTVLHRTISDQAVPMLVTLPGPEAKDWLDSMTKRLEKRISDIEERRAFLITVHYEATRAGLDPELVLSIIQVESNFRKYAVSSAGARGYMQVMPFWVDTIGNPEHNLFHLRVNLRYGCTILRHYLDLEQGDYFRALGRYNGSLGKAGYPNLVFNAWHRHWTYSTASQ | not soluble
3 | LYLAGIGQYAALLEAGFARARSAEETVRLLVTSYIDWVVANPDWARFILHSRGRVEAGELGERLRADNQAHFARIHAALAGYRAEGLFREMPDDCFASVVIGPAHDLARQWLAGRTRVALADCRELLAQVAWDSVRAA | soluble
4 | MSLRIGVIGLGRIGTIHAENLKMIDDAILYAISDVREDRLREMKEKLGVEKAYKDPHELIEDPNVDAVLVCSSTNTHSELVIACAKAKKHVFCEKPLSLNLADVDRMIEETKKADVILFTGFNRRFDRNFKKLKEAVENGTIGKPHVLRITSRDPAPPPLDYIRVSGGIFLDMTIHDFDMARYIMGEEVEEVFADGSVLVDEEIGKAGDVDTAVVVLRFKSGALGVIDNSRRAVYGYDQRIEVFGSKGRIFADNVRETTVVLTDEQGDRGSRYLYFFLERYRDSYLEELKTFIKNVKSGEPPAVSGEDGKMALLLGYAAKKSLEEKRSVKLEEVIGEGHHHHHH | soluble
5 | GMENELEDKILAILEQHQVGVLTSVQGDFPHARYMTFLHDGLTLYTPSGKELPKTEEVRRNPHVCVLIGYDSPGSAFLEINGLASLEEDESIKERIWENISKDWFQGEDSPSFVVIKIVPEQIRILNS | soluble
6 | MASNQQDVVKELNQQVANWTVAYTKLHNFHWYVKGPNFFSLHVKFEELYNEASQYVDELAERILAVGGNPVGTLTECLEQSIVKEAAKGYSAEQMVEELSQDFTNISKQLENAIEIAGNAGDDVSEDMFIGMQTSVDKHNWMFKSYLSLEHHHHHH | soluble
7 | MPDSLKSSIGYSRRFRLFRRGEVTVLEVMAGQKAYPDTLRYLLVPEGRPQPSGFVGYTVIRTPVKRIAVFSTTHIGFLDMLGRSDGIIGVSRPEFVNTPAVRSRIRSGAIKAIGMPFSPDVEALLNLEPDLVIAPALPAARKTDYQALVQAGIPVLVVAEWLEPSPLGRAEWIKLFGALVGKEKLARERFAAIESSYLKIAALSRNLPNRPTVLTGLPVKDAWYVPTGGSYVAAMLRDAGASYHWRDLPGTGSVPLTIEAVWPVALEAEYWLNTGTVSTLDELLAVDSRFGQMRSVRERRVWNNNRLVNAAGGNAYWESGVVRPDLILKDLVMILHPGLLRAHGIGEGELTFFQEVKLEHHHHHH | not soluble
8 | MSLDIRRANSADLNALNALEQQLFDGDRISPRQMKRFLHSDHAALFVADAGDQLAGYALLLFHQGTQLSRLYSIAVKPEFRGQRIAQSLVEQCERAALDQGSTTLRLEVREDNTAALKLYEKMGYKTLKLLIHYYDDLCDGRRMQKRLTPQESKVLLPMPLYVQTTPFTCGAACLLMSFACLDKTFEPSRTQEMQLWREATTIFMAAGHGGCSGQGLALAAARRGYHVELWNQSRSTPFIDSVRDPNKKQIIELVHQDFCQQLAEQDVSMIDAPPSQAQLEEWVRKGACVLLLISTYRFDGKKEPHWIVLSGLSDKFFFFHDPHAESEEHVSGSGYIPVGKAALSQIIGFGKQKQIACVVITPRLEGHHHHHH | soluble
9 | QHPAFMTEMPTDGKYQDTIEALQSMKYDKEDDEDKQMNAEHHKEEGNKHFKFKKYRWATDCYSNGIKENSPDRKLNAVLYFNRAAAQKHLGNLRSAIKDCSMGRKFDPTHLKGVIRGAECLLELEYAKDALNWIESSKKIFAFTKETSDTPDLTDDEKKFIDQLETLRVKSVELSLKEERDKRKSRAEERKETESKKQLLDALKERNLNLCPRVPFDRPELMDMARLTVSLPLMHSHECVKFDDDLNLVWPILLQYPEAGQTDVLTETNELTTVGELLKEVLNSPAQWDPEHKFNFENVRFFVSDEYDEYLMEVYEWNDFKSVLSMPGYQIKQGLPVIMIMTKEKAASSLEALAEDENRYVAK | not soluble
10 | MSNKNKSYDYVIIGGGSAGSVLGNRLSEDKDKEVLVLEAGRSDYFWDLFIQMPAALMFPSGNKFYDWIYSTDEEPHMGGRKVAHARGKVLGGSSSINGMIYQRGNPMDYEGWAEPEGMETWDFAHCLPYFKKLEKTYGAAPYDKFRGHDGPIKLKRGPATNPLFQSFFDAGVEAGYHKTPDVNGFRQEGFGPFDSQVHRGRRMSASRAYLHPAMKRKNLTVETRAFVTEIHYEGRRATGVTYKKNGKLHTIDANEVILSGGAFNTPQLLQLSGIGDSEFLKSKGIEPRVHLPGVGENFEDHLEVYIQHKCKEPVSLQPSLDIKRMPFIGLQWIFTRTGAAASNHFEGGGFVRSNNEVDYPNLMFHFLPIAVRYDGQKAAVAHGYQVHVGPMYSNSRGSLKIKSKDPFEKPSIRFNYLSTEEDKKEWVEAIRVARNILSQKAMDPFNGGEISPGPEVQTDEEILDWVRRDGETALHPSCSAKMGPASDPMAVVDPLTMKVHGMENLRVVDASAMPRTTNGNIHAPVLMLAEKAADIIRGRKPLEPQYIDYYKHGVHDENEGAIEVKPYAK | not soluble
11 | MAHHHHHHSLTTSHILGFPRVGAKRELKFAQERYWRKELAEQDLLDLAKALREKNWKHQAAANADFVAVGDFTFYDHILDLQVATGAIPARFGFDSQNLTLDQYFQLARGNKDQFAIEMTKWFDTNYHYLVPEFQKSTAFKANPAHYVNQIREAKALGLNFKPVIVGPLTFLWLGKEKGEAFNRFDLLNQLVPVYVEILNALVAEGAEWIQIDEPALALDLPAEWVEAYKSVYTELSKVNAKLLLATYFGSVAEHAELLKALPVAGLHLDLVRAPEQLAAFEDYSKVLSAGVIEGRNIWRANLNKVLDVLEPLKAKLGERLWIAPSCSLLHTPFDLEVEVQLKEKNTALYSWLSFTLQKVEELNVLKQALNNGRASVQAALDASQVAADARATSKEIHRPEVAERLANLPKGADQRKSPFAERIVKQNAWLNLPLLPTTNIGSFPQTTEIRHARASFKKGELSLADYEAAMKKEIEYVVRRQEELDLDVLVHGEAERNDMVEYFGELLDGFAFTKFGWVQSYGSRCVKPPVIYGDVTRPEPMTVRWSQYAQSLTNRVMKGMLTGPVTILQWSFVRNDIPRSTVCKQIGVALSDEVLDLEAAGIKVIQIDEPAIREGLPLKRADWDAYLQWAGEAFRLSSMGVQDDTQIHTHMCYSEFNDILPAIAALDADVITIETSRSDMELLTAFADFKYPNDIGPGVYDIHSPRVPTATEVEHLLRKALNVIPKERLWVNPDCGLKTRGWTETIDQLKVMVDVTKKLRAELAEG | soluble
12 | SCQSEKHPGPELQAAEKWLYFPQLALWRRLGQLSCMSRPALNLRSWLLTILHYLLPFRVLGPHSQVGWRPLSRVSLYKTVPTRLLSRACGRLNQVELPYWLWRPVYSLYIWTFGVNMTEAAVEDLHHYHNLSEFFWHQPIMARSSPLGR | not soluble
13 | MGGWIRNIGRYLSYLVDDTFEEYAYDVVDGIAKARTQEELLEGVYKALRLAPKLKKKAESKGCPPPRIPSPEDIEALEEKVEQLSNPKDLRKLAVSLALWAFASWNNCPKKGKGTEGGVELEHHHHHH | soluble
14 | IDIKDVELTADNGKPVYATFFCPKEEIKAAVVIAPALGVDKIFYQDFALWLASYGYLVTTFDYSSMGSADKVHYKESDTTITDWAVFDCKKILEQVSIEIKDKD | not soluble
15 | MSLIHIAIAEDDFRVAQIHERLIKQLDGFKIIGKAANAKETLALLKEHKADLLLLDIYMPDELGTALIPDIRSRFPEVDIMIITAATETRHLQEALRAGIAHYLIKPVTADKFRQVLLQYKEKRKLLMSQPEVSQSMIDHIFGNGVKTALPAEDLPTGINSITLRKIKEALQTASEGLTAEELGEKMGASRTTARRYAEYLVSKEEARAELEYGIIGRPERKYYLAADEGHHHHHH | soluble
16 | MMFNNNNWKLSVTDINLYENTVSLDGQPYPLSLAIKTLIPGYLSGLPSTSREAMELLEALAEAGVTIGNFFSNDLMTAYGRRQMNKRAEAERIAKEQRLQAERMREENMTDAEWQKELQRREQVKAERRTYGESLRSATHSAGRSRAAIVADLESGGNWMDSL | not soluble
17 | MGSDKIHHHHHHMTRSTIGGKRFEPIPARFSSIGAGLMNIKQLEVLRTLLSTGSTIATAKAMGLSQSGISRLLAQLEADLSLTLFARDKGRLIPTPEAALLARDAENVLLAVDRMSGHAEDLRNGAAGPEIVRIGLPSSMWENFAPAMLIDYVRDFPGVRIETFFETTTAINKLVGERVIDLGFLRMEGEIGPGIDVERVATGKSVCVVREDHPLADLQEITVKDLRNIPLILIGRQRPNRMALDQVFKKAGVKPMVKIETHTNSSACAYVAHGLGVTIISSFYANLYRHLPVVARPFVPQATQEFGLARASGAPLSIAAQALSNALKREIQLSQKID | not soluble
18 | MRTFTWRKGSLSKVNTCYVLAGGKSKRFGEDKLLYEIKGKKVIERVYETAKSVFKEVYIVAKDREKFSFLNAPVVLDEFEESASIIGLYTALKHAKEENVFVLSGDLPLMKKETVLYVLENFKEPVSVAKTEKLHTLVGVYSKKLLEKIEERIKKGDYRIWALLKDVGYNEVEIPEELRYTLLNMNTKEDLKRILAIENHY | soluble
19 | MGHHHHHHSHMRLLKSELGSFITDYFQNQLLAKGLFFVEEKIKLCEGENRIEVLAEVWDHFFTETLPTLQAIFYPVQSVHEPTGPSESYLQLEELVKQVVSPFLGISGDRSFSGPTYTLARRHSRVRPKVTVLNYASPITAVSRPLNEMVLTPLTEQEGEAYLEKCGSVRRHTVANAHSDIQLLAMATMMHSGLGEEASSENKCLLLPPSFPPPHRQCSSEPNITDNPDGLEEGARGSQEGSELNCASLS | not soluble
20 | MGSDKIHHHHHHMNSSHGTSSSGASAGAHGALPLEAQKLNGWGRTAPTTAEVLTTPDLDIIVDAVRQVAEQNDSKPDYLKRGVIARGMGRSYGDPAQNAGGLVIDMQPLNKIHSIDPDSAIVDVDGGVTLDQLMKAALPYGLWVPVLPGTRQVTIGGAIGPDIHGKNHHSAGSFGDHVVSMELLVADGRILHLEPEGTAEDPQGDLFWATVGGMGLTGIIVRARIRMTKTETAYFIADTDRTNNLEETVAFHSDGSEHNYTYSSAWFDVISPEPKLGRSTISRGSLATLAQLEELAPKLAKDPLKFNAPQLMKVPDIFPSWTLNKLTLSAVGVAYYAMGAPAKNQVKNLTQFYQPLDLIGEWNRGYGSKGFLQYQFVVPTEAVEPFKDIIRDMQKSGHYSALNVFKLFGPGNRAPLSYPMPGWNVCVDFPIRPGLGAFLDDLDKRVMEFGGRLYLAKESRTSAENFHAMYPGMEGWLKTRNEIDPTGVFASDMSRRLELS | not soluble
21 | MYSDLAGKVVVITGSATGLGRAMGVRFAKEKAKVVINYRSRESEAHDVLEEIKKVGGEAIAVKGDVTVESDVVNLIQSAVKEFGTLDVMINNAGIENAVPSHEMPLEDWNKVINTNLTGAFLGSREAIKYFVEHDIKGSIINMSSVHEKIPWPLFVHYAASKGGVKLMTETLAMEYAPKGIRVNNIGPGAINTPINAEKFADPKKRADVESMIPMGYIGKPEEIAAVATWLASSEASYVTGITLFADGGMTLYPSFQAGRG | not soluble
